Test results from patent publication US20040170630A1 (published 2004).
Numbering of substitutions follows the chain as printed.

T1: recombinant heparanase 8 kDa/50 kDa heterodimer (baculovirus, insect cell expressed) (human, UniProt Q9Y251 36-109; Q9Y251 158-543)
T1 construct: domain: 8 kDa subunit;domain: 50 kDa subunit; Amplified from a mammary gland cDNA library; In one screening ELISA it was biotinylated; also called 8/50 heterodimer protein; purified recombinant heparanase
T1 sequence 1: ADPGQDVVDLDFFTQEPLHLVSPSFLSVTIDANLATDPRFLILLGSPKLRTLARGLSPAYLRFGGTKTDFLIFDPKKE
T1 sequence 2: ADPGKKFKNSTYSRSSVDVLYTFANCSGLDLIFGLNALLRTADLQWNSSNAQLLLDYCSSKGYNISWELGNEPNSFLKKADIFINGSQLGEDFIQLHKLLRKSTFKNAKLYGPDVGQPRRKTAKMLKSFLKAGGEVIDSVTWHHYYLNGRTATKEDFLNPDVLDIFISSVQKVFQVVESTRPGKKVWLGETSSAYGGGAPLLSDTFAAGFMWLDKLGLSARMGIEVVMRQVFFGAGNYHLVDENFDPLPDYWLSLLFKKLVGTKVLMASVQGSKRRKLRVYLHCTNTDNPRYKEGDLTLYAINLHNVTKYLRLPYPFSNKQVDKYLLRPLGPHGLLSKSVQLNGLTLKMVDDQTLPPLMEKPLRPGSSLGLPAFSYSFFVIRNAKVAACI

B1: human monoclonal antibody 5G10 (antibody, V domains shown)
VH: QVQLVQSGAEVKKPGASVKVSCKVSGYTLTELSMHWVRQAPGKGLEWMGGFDPEDGETIYAQKFQGRVTMTEDTSTDTAYMELSSLRSEDTAVYYCATESLVRYFDWLSHFDYWGQGTLVTVSS
VL: DIQMTQSPSSLSASVGDRVTITCRASQGISSWLAWYQQKPEKAPKSLIYAASSLQSGVPSRFSGSGSGTDFTLTISSLQPEDFATYYCQQYNSYPYTFGQGTKLEIK
notes: Human IgG kappa from a KM mouse hybridoma; subclass not reported
B2: human monoclonal antibody 13B2 (antibody, V domains shown)
VH: EVQLVESGGGLVQPGGSLRLSCAASGFTFSSYWMSWVRQAPGKGLEWVASIYQDGSEKYYVDSVKGRFTISRDNAKNSLYLQMNSLRAEDTAMYYCARELDWGWDYWGQGTLVTVSS
VL: B1 VL with D1A, M4L, W32A, E41G, S46L, A50D, Q55E, Y91F, Y96I, K103R
notes: as for B1
B3: human monoclonal antibody 22D9 (antibody, V domains shown)
VH: B1 VH with E89D
VL: B1 VL
notes: Fully human IgG with kappa light chain from a KM mouse hybridoma, purified by Protein A
B4: human monoclonal antibody 1E7 (antibody, V domains shown)
VH: B2 VH with M93V
VL: B1 VL with D1A, M4L, W32A, E41G, S46L, A50D, Q55E, Y91F, Y96I, K103R
notes: as for B1
B5: human monoclonal antibody 2H8 (antibody, V domains shown)
VH: B1 VH with G66D, A97T
VL: B1 VL
notes: as for B1

Columns and labels:
[1] = target: T1, recombinant heparanase 8 kDa/50 kDa …; assay: ELISA on coated recombinant heparanase and on biotin-heparanase captured by streptavidin; hybridoma supernatants
Protocol: To select KM mice producing antibodies that bound heparanase, sera from immunized mice was tested by ELISA as described by Fishwild, D. et al. (1996). Briefly, microtiter plates were coated with purified recombinant heparanase from baculovirus at 1-2 μg /ml in PBS, 50 μl/wells incubated 4° C. overnight then blocked with 200 μl/well of 5% chicken serum in PBS/Tween (0.05%). Dilutions of plasma from heparanase-immunized mice were added to each well and incubated for 1-2 hours at ambient temperature. The plates were washed with PBS/Tween and then incubated with a goat-anti-human IgG Fc polyclonal antibody conjugated with horseradish peroxidase (HRP) for 1 hour at room temperature. After washing, the plates were developed with ABTS substrate (Sigma, A-1 888, 0.22 mg/ml) and analyzed by spectrophotometer at OD 415-495. Mice that developed the highest titers of anti-heparanase antibodies were used for fusions. Fusions were performed as described above and hybridoma supernatants were tested for anti-heparanase activity by ELISA. In order to select antibodies that bind to heparanase enzyme, an ELISA assay as described above and a biotinylated ELISA as described above with following modifications were applied. Briefly, ELISA plates were coated with streptavidin (Sigma catalog number: S-4762) at 1 μg/ml in PBS, 50 ul/well. After overnight incubation at 4° C., the plates were blocked with 200 μl/well of 5% chicken serum in PBS/Tween (0.05%). The plates were then washed with PBS/Tween three times. Biotin-heparanase was added to the plates at 1 μg/ml in PBS, 50 ul/well and then incubated for 1 hour at room temperature. 50 ul/well of the supernatants were then added to the plates and incubated for 1-2 hours at room temperature. The rest of the procedures were exactly the same as described above. Hybridomas secreting a monoclonal antibody that bound with high avidity to heparanase were selected for further characterization for enzymatic, motility and angiogenesis activities.

[2] = target: T1, recombinant heparanase 8 kDa/50 kDa …; assay: competition binding format

Binder	binding result [1]	binding result [2]
B1	binds	–
B2	binds	–
B3	–	binds
B4	binds	–
B5	binds	–
